From patent US7432061B2, “Assays for measuring matrix metalloproteinase activities” (BioZyme, Inc., priority 2002, dated 2008)

How the values were obtained:
[1] = target: T1, gelatinase A (Homo sapiens, UniProt P08253); assay: Inhibition with type II collagen, FlSub3 cleavage; type: biochemical; settings: for Improvement In Selectivity (Gel-A v Col-3): 44 ug/ml Type II Collagen vs no Type II Collagen, FlSb3; for Average Percent Inhibition from 1.1 to 6.6 Hours / Average Percent Inhibition: GELA(.025 nM)
T1 sequence (P08253 110-660): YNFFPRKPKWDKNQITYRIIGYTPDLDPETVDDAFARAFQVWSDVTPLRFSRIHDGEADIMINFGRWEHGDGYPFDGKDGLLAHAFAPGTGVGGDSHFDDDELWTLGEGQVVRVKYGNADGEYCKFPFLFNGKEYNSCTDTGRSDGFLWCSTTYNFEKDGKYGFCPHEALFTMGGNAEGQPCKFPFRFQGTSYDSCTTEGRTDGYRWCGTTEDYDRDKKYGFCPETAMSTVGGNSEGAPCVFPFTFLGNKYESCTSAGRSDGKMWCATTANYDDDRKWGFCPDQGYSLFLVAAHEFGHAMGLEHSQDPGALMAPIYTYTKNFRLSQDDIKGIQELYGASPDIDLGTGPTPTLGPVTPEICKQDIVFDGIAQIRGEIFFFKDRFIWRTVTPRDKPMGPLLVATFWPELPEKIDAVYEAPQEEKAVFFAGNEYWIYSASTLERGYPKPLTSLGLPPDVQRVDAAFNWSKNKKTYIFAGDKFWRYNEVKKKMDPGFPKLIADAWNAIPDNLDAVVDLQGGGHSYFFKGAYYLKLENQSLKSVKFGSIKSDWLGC
Method: (§1) In a 96 well plate, collagenase 3 (0.013 nM), collagenase 1 (1.25 nM), stromelysin 1 (0.8 nM), gelatinase A (0.025 nM), or gelatinase B (0.008 nM) were reacted with 20 uM FlSub3 in standard assay buffer in the presence of varying concentrations of bovine type II collagen (0.18-44 ug/ml). The type II collagen, a 1 mg/ml stock in 0.5M acetic acid, was transferred into assay buffer by passing the material through a biospin P6 column from Amersham. The reaction was initiated by addition of substrate to enzyme containing either buffer or an appropriate amount of type II collagen. Data points were taken every 15 min over a period of 15 hours using an excitation and emission wavelength of 350 and 485 nm respectively. The usable data (1-6 hours), was taken and the percent inhibition by type II collagen was calculated for each enzyme and plotted as a function of inhibitor concentration and time in the assay. It should be noted that the percent inhibition varies with time as the bovine substrate is consumed during the reaction course.

[2] = target: gelatinase B (Homo sapiens, UniProt P14780); assay: Inhibition with type II collagen, FlSub3 cleavage; type: biochemical; settings: for Improvement In Selectivity (Gel-B v Col-3): 44 ug/ml Type II Collagen vs no Type II Collagen, FlSb3; for Average Percent Inhibition from 1.1 to 6.6 Hours / Average Percent Inhibition: GELB(.008 nM)
Sequence of gelatinase B (P14780 94-707): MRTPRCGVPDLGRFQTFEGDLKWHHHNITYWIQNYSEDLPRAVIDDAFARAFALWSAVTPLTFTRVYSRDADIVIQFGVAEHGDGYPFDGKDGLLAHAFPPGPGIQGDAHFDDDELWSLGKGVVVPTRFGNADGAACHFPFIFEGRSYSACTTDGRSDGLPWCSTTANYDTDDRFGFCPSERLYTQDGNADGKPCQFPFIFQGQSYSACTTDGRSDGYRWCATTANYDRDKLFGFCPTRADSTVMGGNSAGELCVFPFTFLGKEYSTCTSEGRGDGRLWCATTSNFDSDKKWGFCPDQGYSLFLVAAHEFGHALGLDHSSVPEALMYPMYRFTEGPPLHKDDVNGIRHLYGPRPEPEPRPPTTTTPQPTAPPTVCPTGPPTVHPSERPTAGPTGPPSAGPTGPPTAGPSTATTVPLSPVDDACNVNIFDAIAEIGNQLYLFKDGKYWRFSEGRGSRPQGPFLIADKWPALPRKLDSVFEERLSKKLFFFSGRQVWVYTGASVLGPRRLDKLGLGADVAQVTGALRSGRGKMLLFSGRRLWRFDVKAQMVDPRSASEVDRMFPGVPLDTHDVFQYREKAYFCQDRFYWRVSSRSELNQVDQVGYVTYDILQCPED
Method: as §1

[3] = TypeIICOL(1.6 ug/ul), FISb3, hour 0.10 to 1.10
[4] = TypeIICOL(1.6 ug/ul), FISb3, hour 1.10 to 2.10
[5] = TypeIICOL(1.6 ug/ul), FISb3, hour 1.10 to 6.60
[6] = TypeIICOL(1.6 ug/ul), FISb3, hour 2.10 to 3.10
[7] = TypeIICOL(1.6 ug/ul), FISb3, hour 3.10 to 4.10
[8] = TypeIICOL(1.6 ug/ul), FISb3, hour 4.10 to 5.10
[9] = TypeIICOL(1.6 ug/ul), FISb3, hour 5.10 to 6.10
[10] = TypeIICOL(4.9 ug/ul), FISb3, hour 0.10 to 1.10
[11] = TypeIICOL(4.9 ug/ul), FISb3, hour 1.10 to 2.10
[12] = TypeIICOL(4.9 ug/ul), FISb3, hour 1.10 to 6.60
[13] = TypeIICOL(4.9 ug/ul), FISb3, hour 2.10 to 3.10
[14] = TypeIICOL(4.9 ug/ul), FISb3, hour 3.10 to 4.10
[15] = TypeIICOL(4.9 ug/ul), FISb3, hour 4.10 to 5.10
[16] = TypeIICOL(4.9 ug/ul), FISb3, hour 5.10 to 6.10
[17] = TypeIICOL(15 ug/ul), FISb3, hour 0.10 to 1.10
[18] = TypeIICOL(15 ug/ul), FISb3, hour 1.10 to 2.10
[19] = TypeIICOL(15 ug/ul), FISb3, hour 1.10 to 6.60
[20] = TypeIICOL(15 ug/ul), FISb3, hour 2.10 to 3.10
[21] = TypeIICOL(15 ug/ul), FISb3, hour 3.10 to 4.10
[22] = TypeIICOL(15 ug/ul), FISb3, hour 4.10 to 5.10
[23] = TypeIICOL(15 ug/ul), FISb3, hour 5.10 to 6.10
[24] = TypeIICOL(44 ug/ul), FISb3, hour 0.10 to 1.10
[25] = TypeIICOL(44 ug/ul), FISb3, hour 1.10 to 2.10
[26] = TypeIICOL(44 ug/ul), FISb3, hour 1.10 to 6.60
[27] = TypeIICOL(44 ug/ul), FISb3, hour 2.10 to 3.10
[28] = TypeIICOL(44 ug/ul), FISb3, hour 3.10 to 4.10
[29] = TypeIICOL(44 ug/ul), FISb3, hour 4.10 to 5.10
[30] = TypeIICOL(44 ug/ul), FISb3, hour 5.10 to 6.10
[31] = TypeIICOL(.18 ug/ul), FISb3, hour 0.10 to 1.10
[32] = TypeIICOL(.18 ug/ul), FISb3, hour 1.10 to 2.10
[33] = TypeIICOL(.18 ug/ul), FISb3, hour 1.10 to 6.60
[34] = TypeIICOL(.18 ug/ul), FISb3, hour 2.10 to 3.10
[35] = TypeIICOL(.18 ug/ul), FISb3, hour 3.10 to 4.10
[36] = TypeIICOL(.18 ug/ul), FISb3, hour 4.10 to 5.10
[37] = TypeIICOL(.18 ug/ul), FISb3, hour 5.10 to 6.10
[38] = TypeIICOL(.55 ug/ul), FISb3, hour 0.10 to 1.10
[39] = TypeIICOL(.55 ug/ul), FISb3, hour 1.10 to 2.10
[40] = TypeIICOL(.55 ug/ul), FISb3, hour 1.10 to 6.60
[41] = TypeIICOL(.55 ug/ul), FISb3, hour 2.10 to 3.10
[42] = TypeIICOL(.55 ug/ul), FISb3, hour 3.10 to 4.10
[43] = TypeIICOL(.55 ug/ul), FISb3, hour 4.10 to 5.10
[44] = TypeIICOL(.55 ug/ul), FISb3, hour 5.10 to 6.10
[45] = highest concentration (44 ug/ml), six hour time course, FlSub3

- Improvement In Selectivity (Gel-A v Col-3) [1]: 80 fold
- Improvement In Selectivity (Gel-A v Col-3) ([1]; listed as collagen): approximately 80 fold
- Average Percent Inhibition from 1.1 to 6.6 Hours ([1]; Type II Collagen 0.18 ug/ml): 2%
- Average Percent Inhibition from 1.1 to 6.6 Hours ([1]; Type II Collagen 0.54 ug/ml): 6%
- Average Percent Inhibition from 1.1 to 6.6 Hours ([1]; Type II Collagen 1.63 ug/ml): −52%
- Average Percent Inhibition from 1.1 to 6.6 Hours ([1]; Type II Collagen 4.89 ug/ml): 32%
- Average Percent Inhibition from 1.1 to 6.6 Hours ([1]; Type II Collagen 14.67 ug/ml): 56%
- Average Percent Inhibition from 1.1 to 6.6 Hours ([1]; Type II Collagen 44.00 ug/ml): 83%
- Average Percent Inhibition [1, 3]: −27%
- Average Percent Inhibition [1, 4]: 4%
- Average Percent Inhibition [1, 5]: −52%
- Average Percent Inhibition [1, 6]: −11%
- Average Percent Inhibition [1, 7]: −37%
- Average Percent Inhibition [1, 8]: −68%
- Average Percent Inhibition [1, 9]: −104%
- Average Percent Inhibition [1, 10]: 37%
- Average Percent Inhibition [1, 11]: 43%
- Average Percent Inhibition [1, 12]: 32%
- Average Percent Inhibition [1, 13]: 46%
- Average Percent Inhibition [1, 14]: 37%
- Average Percent Inhibition [1, 15]: 27%
- Average Percent Inhibition [1, 16]: 19%
- Average Percent Inhibition [1, 17]: 56%
- Average Percent Inhibition [1, 18]: 64%
- Average Percent Inhibition [1, 19]: 56%
- Average Percent Inhibition [1, 20]: 70%
- Average Percent Inhibition [1, 21]: 64%
- Average Percent Inhibition [1, 22]: 53%
- Average Percent Inhibition [1, 23]: 41%
- Average Percent Inhibition [1, 24]: 58%
- Average Percent Inhibition [1, 25]: 78%
- Average Percent Inhibition [1, 26]: 83%
- Average Percent Inhibition [1, 27]: 86%
- Average Percent Inhibition [1, 28]: 87%
- Average Percent Inhibition [1, 29]: 85%
- Average Percent Inhibition [1, 30]: 82%
- Average Percent Inhibition [1, 31]: 3%
- Average Percent Inhibition [1, 32]: 9%
- Average Percent Inhibition [1, 33]: 2%
- Average Percent Inhibition [1, 34]: 7%
- Average Percent Inhibition [1, 35]: 3%
- Average Percent Inhibition [1, 36]: 0%
- Average Percent Inhibition [1, 37]: −3%
- Average Percent Inhibition [1, 38]: 2%
- Average Percent Inhibition [1, 39]: 11%
- Average Percent Inhibition [1, 40]: 6%
- Average Percent Inhibition [1, 41]: 12%
- Average Percent Inhibition [1, 42]: 8%
- Average Percent Inhibition [1, 43]: 4%
- Average Percent Inhibition [1, 44]: −1%
- inhibition of gelatinase A by type II collagen [1, 45]: Almost complete inhibition
- Improvement In Selectivity (Gel-B v Col-3) [2]: 46 fold
- Improvement In Selectivity (Gel-B v Col-3) ([2]; listed as collagen): approximately 80 fold
- Average Percent Inhibition from 1.1 to 6.6 Hours ([2]; Type II Collagen 0.18 ug/ml): 9%
- Average Percent Inhibition from 1.1 to 6.6 Hours ([2]; Type II Collagen 0.54 ug/ml): 9%
- Average Percent Inhibition from 1.1 to 6.6 Hours ([2]; Type II Collagen 1.63 ug/ml): 12%
- Average Percent Inhibition from 1.1 to 6.6 Hours ([2]; Type II Collagen 4.89 ug/ml): 38%
- Average Percent Inhibition from 1.1 to 6.6 Hours ([2]; Type II Collagen 14.67 ug/ml): 65%
- Average Percent Inhibition from 1.1 to 6.6 Hours ([2]; Type II Collagen 44.00 ug/ml): 84%
- Average Percent Inhibition [2, 3]: −28%
- Average Percent Inhibition [2, 4]: 14%
- Average Percent Inhibition [2, 5]: 12%
- Average Percent Inhibition [2, 6]: 19%
- Average Percent Inhibition [2, 7]: 15%
- Average Percent Inhibition [2, 8]: 11%
- Average Percent Inhibition [2, 9]: 7%
- Average Percent Inhibition [2, 10]: 35%
- Average Percent Inhibition [2, 11]: 43%
- Average Percent Inhibition [2, 12]: 38%
- Average Percent Inhibition [2, 13]: 47%
- Average Percent Inhibition [2, 14]: 41%
- Average Percent Inhibition [2, 15]: 35%
- Average Percent Inhibition [2, 16]: 30%
- Average Percent Inhibition [2, 17]: 57%
- Average Percent Inhibition [2, 18]: 67%
- Average Percent Inhibition [2, 19]: 65%
- Average Percent Inhibition [2, 20]: 72%
- Average Percent Inhibition [2, 21]: 69%
- Average Percent Inhibition [2, 22]: 64%
- Average Percent Inhibition [2, 23]: 59%
- Average Percent Inhibition [2, 24]: 41%
- Average Percent Inhibition [2, 25]: 82%
- Average Percent Inhibition [2, 26]: 84%
- Average Percent Inhibition [2, 27]: 87%
- Average Percent Inhibition [2, 28]: 87%
- Average Percent Inhibition [2, 29]: 85%
- Average Percent Inhibition [2, 30]: 83%
- Average Percent Inhibition [2, 31]: 3%
- Average Percent Inhibition [2, 32]: 12%
- Average Percent Inhibition [2, 33]: 9%
- Average Percent Inhibition [2, 34]: 11%
- Average Percent Inhibition [2, 35]: 9%
- Average Percent Inhibition [2, 36]: 7%
- Average Percent Inhibition [2, 37]: 5%
- Average Percent Inhibition [2, 38]: 3%
- Average Percent Inhibition [2, 39]: 10%
- Average Percent Inhibition [2, 40]: 9%
- Average Percent Inhibition [2, 41]: 12%
- Average Percent Inhibition [2, 42]: 10%
- Average Percent Inhibition [2, 43]: 8%
- Average Percent Inhibition [2, 44]: 6%
- inhibition of gelatinase B by type II collagen [2, 45]: Almost complete inhibition
Substance: Type II Collagen: bovine type II collagen, full length MMP substrate used as inhibitor of gelatinases
